According to patent US20250263490A1 (VIB VZW, published 2025):

Columns and labels:
[1] = molecular target: T1, recombinant human domain 1-3His6 of the cation-independent mannose-6-phosphate receptor (human, UniProt P11717 41-467); assay: BLI exp 1, dissoc pH 7
T1 construct: Biotinylated (NHS-PEG4-biotin) for BLI; Glycosylated; also called hDom1-3His6; hCI-M6PRD1-D3
Method: (§1) For each of the 11 anti-CI-M6PR VHHs, a biolayer interferometry (BLI) experiment was performed in which the hDom₁₋₃His₆ was biotinylated and coupled to streptavidin biosensor tips. Afterwards, the tips were incubated with serially diluted VHHs during the association phase and dissociation was performed at pH 7.4. Similarly, dissociation was performed at pH 7.0, pH 6.0 and pH 5.0 as well after regeneration of the biosensor tips. […] The anti-CI-M6PR antibody (clone 2G11) and GBP were used as positive and negative controls, respectively.
(§2) Analysis of the binding kinetics was performed using an Octet Red96 (FortéBio) device with Streptavidin SA Biosensor tips (VWR 733-2145). Therefore, 1 mL of human domain₁₋₃His₆ (0.5 mg/mL in 50 mM MES, 150 mM NaCl, pH 6.5) was incubated at room temperature for 30 minutes with EZ-Link™ NHS-PEG4-Biotin (1 mg) (Thermo Fischer A39259) and NaHCO₃ (100 mM). Biotinylated human domain₁₋₃His₆ was purified using a Zeba spin desalting Column™ (7K MWCO, 2 mL, Thermo Fischer 89890) and 1 μg/mL was used for immobilization on the Streptavidin SA Biosensor tips. The loaded tips were dipped into a particular anti-CI-M6PR VHH solution, serially diluted in kinetics buffer (0.2M NaH₂PO₄, 0.1M Na⁺ citrate, 0.01% BSA, 0.002% Tween20, pH 7.4). This was followed by dissociation of the particular anti-CI-M6PR VHH in kinetics buffer of pH 7.4, followed by regeneration in Glycine (10 mM, pH 3) and neutralisation. Same cycle was repeated but the dissociation was performed at pH 7.0, 6.0, 5.0, 4.5 and 4.0. A reference well and reference sensors were subtracted from ligand sensors afterwards and Savitsky-Golay filtering was applied on the data. Fitting of the data was performed using a 1:1 model, grouped per pH of dissociation.

[2] = molecular target: T1, recombinant human domain 1-3His6 of the …; assay: BLI exp 2, dissoc pH 6
Method: as §1
(§3) Analysis of the binding kinetics was performed using an Octet Red96 (FortéBio) device with Streptavidin SA Biosensor tips (VWR, 733-2145). To this end, 1 mL of hCI-M6PR_D1-D3 (0.5 mg/mL in 50 mM MES, 150 mM NaCl, pH 6.5) was incubated at room temperature for 30 minutes with a two-fold molar excesses of EZ-Link™ NHS-PEG₄-Biotin (Thermo Fischer, A39259) and NaHCO₃ (100 mM, pH 8.3). Biotinylated hCIMPR_D1-D3 was purified using a Zeba spin desalting column (Thermo Fischer, 89890) and protein concentration was calculated by measuring the absorbance at 280 nm (extinction coefficient 50320 M¹ cm⁻¹). Two-fold biotin-labelled antigen was loaded on the tips (2.5 μg/mL) and subsequently dipped into a particular anti-CI-M6PR VHH-containing solution (ranging from 0-100 nM). Serial VHH dilutions were made in kinetics buffer (0.2 M Na₂HPO₄, 0.1 M Na⁺ citrate, 0.01% BSA, 0.002% Tween20, pH 7.4). After association (100 sec), dissociation was conducted (500 sec) for each anti-CI-M6PR VHH in the kinetics buffer, followed by biosensor regeneration in glycine (10 mM, pH 3) and neutralisation. The same cycle was repeated with dissociation performed in kinetics buffer of pH 7.0, 6.5, 6.0, 5.5, and 5.0.
(§4) A reference well and reference sensors were subtracted from ligand sensors afterwards and Savitsky-Golay filtering was applied on the data. Fitting of the data was performed using a 1:1 model, grouped per dissociation pH.

[3] = molecular target: T1, recombinant human domain 1-3His6 of the …; assay: BLI exp 1, dissoc pH 7.4
Method: as §1, §2

[4] = molecular target: T1, recombinant human domain 1-3His6 of the …; assay: BLI exp 2, dissoc pH 5.5
Method: as §1, §3, §4

[5] = molecular target: T1, recombinant human domain 1-3His6 of the …; assay: BLI at pH 7.4, 2nd of 2 repeats
[6] = molecular target: T1, recombinant human domain 1-3His6 of the …; assay: ELISA on coated antigen, 1st of 2 repeats
Method: (§5) FIGS. 4A-4B. Affinity of anti-CI-M6PR VHHs for recombinant human CI-M6PR Domain 1-3His₆ determined by ELISA. A & B. Measurements for each of the 11 anti-CI-M6PR VHHs in serial dilution binding to the coated human CI-M6PR Domain 1-3His₆ antigen. Detection was performed using an anti-VHH antibody coupled to HRP, and measured as the absorbance of the TMB substrate at 450 nm, correlating to the amount of bound VHH as plotted at the Y-axis. The Log₁₀ concentrations of the serially diluted VHHs were plotted at the X-axis. […] A & B represent replicates but using a different concentration of human CI-M6PR Domain 1-3His₆ (in (FIG. 4A): 0-0.75 μM and in (FIG. 4B): 0-1 μM).
(§6) We evaluated the affinity of the VHHs against the hDom₁₋₃His₆ using ELISA. Coated hDom₁₋₃His₆ was incubated with serially diluted VHH that was afterwards detected using an anti-VHH antibody, coupled to HRP.

[7] = molecular target: T1, recombinant human domain 1-3His6 of the …; assay: ELISA on coated antigen, 2nd of 2 repeats
Method: as §5, §6

[8] = molecular target: T1, recombinant human domain 1-3His6 of the …; assay: ELISA on coated human CI-M6PRD1-D3, non-linear fit of the curves of FIG 36A
Method: FIGS. 36A-C. […] (FIG. 36A) ELISA assay in which each construct was serially diluted and incubated on human CI-M6PR_D1-D3 and the detected absorbance (Abs) at 450 nm was set out in function of concentration. […] Graphs created in Graphpad Prism 9.0.0.

Kd [1]: 6.45 nM | koff [1]: 0.00368 s⁻¹ | kon [1]: 570000 M⁻¹ s⁻¹ | koff [2]: 0.0012 s⁻¹ | kon [2]: 1.3e+08 M⁻¹ s⁻¹ | Kd [3]: 1.69 nM | koff [3]: 0.000787 s⁻¹ | kon [3]: 465000 M⁻¹ s⁻¹ | koff [4]: 0.0025 s⁻¹ | kon [4]: 1.9e+08 M⁻¹ s⁻¹ | koff [5]: 0.00065 s⁻¹ | EC50 [6]: 0.11 nM | EC50 [7]: 0.165 nM | EC50 [8]: 0.16 nM
B1: anti-CI-M6PR VHH8 (VHH)
VHH: QVQLQESGGGLVQAGGSLRLSCEASGRTFNTYNWGWFRQAPGKEREFVAAIRWSSSKTSYADSVKGRFTISRDNAKNTIYLQMNSLKPEDTAVYYCAASIVDFTTNPSHFGSWGQGTQVTVSS
notes: His6-tagged (Pichia pastoris)
